System: MS2 coat protein
Experiment: apparent KD of MS2 coat protein; designed switch direction (-1 OFF switch, 1 ON switch): -1; higher = weaker reporter binding
Method in brief: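 The reported apparent KD is a per-design median over clusters, from curve fits of normalised cluster fluorescence. Protein titrations used SNAP-549-labelled MS2 coat protein, doubled from 0.7 or 1.5 nM to 3 µM, in Tris-HCl pH 7.5 buffer with KCl, MgCl2, BSA, DTT, tRNA and Tween-20, with no input, 200 uM small-molecule ligand, or an oligonucleotide input. The RNA switches were transcribed on Illumina chips by stalled E. coli RNA polymerase.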

[1] = Eterna round: R95, input ligand: microRNA oligo, concentration not stated
[2] = input ligand: microRNA oligo, concentration not stated
[3] = Eterna round: R95, input ligand: FMN 200 uM
[4] = Eterna round: R95, input ligand: none

Sequence	apparent KD of MS2 coat protein [1] [nM]	apparent KD of MS2 coat protein (input ligand: FMN 200 uM) [nM]	apparent KD of MS2 coat protein (input ligand: none) [nM]	apparent KD of MS2 coat protein [2] [nM]	apparent KD of MS2 coat protein [3] [nM]	apparent KD of MS2 coat protein [4] [nM]
ACUAGAUGAGGAUAUGCAUGUUUUCAUGUUCUUCUAGAUUAACAUGAGGAUCACCCAUGUAGAAGGCGUCUUUA [Exclusion 2 - 32] (puzzle: Exclusion 2)	18.9	–	–	–	–	–
ACUAGAUGAGGAUAUGCAUGUUUUCGUGUUCUUCUAGAUUAACAUGAGGAUCACCCAUGUAGAAGGCGUCAUUU [Exclusion 2 - 27] (puzzle: Exclusion 2)	76.9	–	–	–	–	–
ACUAGUCAUGAGGAUAUGCGAGCCAACGGGCGAGCAGAAGGCGUGACAUGAGGAUCACCCAUGUCAGUUCGCGA [eternacac ex6r4 sub31] (Eterna round: R97, puzzle: Exclusion 6)	–	21.9	17.4	–	–	–
ACUCAGUGAGGAUAUCGCCAGAGAGCCGUGACGGCUCCUGAUGAGAAGGCACAUGAGGAUCACCCAUGUAAGCA [EX4 C.7] (Eterna round: R97, puzzle: Exclusion 4)	–	204	134	–	–	–
ACUCCUGAUGUUAGGAUAUCAGGCGCGACAGCGGAUGAGAAGGAACAUGAGGAUCACCCAUGUGGGCUUAUCAA [Reedonso] (Eterna round: R97, puzzle: Brourd's mod of Exclusion 4)	–	325	81.6	–	–	–
ACUCGUGCCCGAGGAUAUUACAGCAACCUGGCUUAAGAAGGCGGGACAUGAGGAUCACCCAUGUUCUGCGCAUCGGUCGUCAGA [Anzatete] (Eterna round: R96, puzzle: Exclusion NG 1)	–	18.8	13	9.36	–	–
ACUGGGAGAGGAUAUACAUGAGGAUCACCCAUGUGAAAUUAUAGUGAGGAAAUGAAAAGUAGAAGGCUCUUAGA [Mod of Mat 14 - Jieux - Exclusion 3] (Eterna round: R97, puzzle: Exclusion 3)	–	151	68.4	–	–	–
ACUGGUGCAGGAUAUACAUGAGGAUCACCCAUGUGAUCAGCAGUCCUCGGACUGCAAUGUAGAAGGGCACCAGU [E3/1-D1] (Eterna round: R97, puzzle: Exclusion 3)	–	105	804	–	–	–
ACUGUUCGAGGAUAUACGAUCGUGCUUCGGCACGUAAGAUCACAUGAGGAUCACCCAUGUAGAAGGCGAACAGU [Mod 5 - Jieux - Exclusion 2] (Eterna round: R97, puzzle: Exclusion 2)	–	292	38.6	–	–	–
ACUUACUGAGGAUAUACAUAGAUUUACAUGAGGAUCACCCAUGUUCCUCUAUGUAUAUAUGUAGAAGGCAGAAGUG [Mat - Exclusion 5 - JL Mod - D36] (Eterna round: R97, puzzle: Exclusion 5)	–	137	33.3	–	–	–
ACUUACUGAGGAUAUGCGUGGAUAAACAUGAGGAUCACCCAUGUUCCUAUAAGUAUGUAUGUAGAAGGCAGAAGAA [JR_Ex5_Sub075] (Eterna round: R97, puzzle: Exclusion 5)	–	60.5	130	–	–	–
ACUUAUAGAGGAUAUACAGUUUAUUACAUGAGGAUCACCCAUGUUCUUCAAUGUCCUGAAGUAGAAGGCUAAGGAA [Ex5 Malc#5 mod4] (Eterna round: R97, puzzle: Exclusion 5)	–	19.7	16.3	–	–	–
ACUUAUUGAGGAUAUACAUUAAAUUACAUGAGGAUCACCCAUGUUCUUCAAUGUAUAUAUGUAGAAGGCAGAAGAA [JL-ex5-4.27 Malcolm mod] (Eterna round: R97, puzzle: Exclusion 5)	–	14.9	16.4	–	–	–
ACUUGCUAUUUGCUCGUCUUAUCCUUGUUUGUUUACUAUACAUGAGGAUCACCCAUGUUAUAUUUAAGGGUGUGAUA [JR_SV3TOV2_Sub075] (puzzle: Sensor v3, turn-off variant 2)	322	–	–	–	141	166
ACUUGUGCCCUAGGAUAUCGCCCAGCCAAUGGAUGAGAAGGAGGCGGGUGAAACAUGAGGAUCACCCAUGUAAACGCACAGGCG [Esa] (Eterna round: R96, puzzle: Exclusion NG 1)	–	114	26.9	25.5	–	–
AGAAACAGAGGAUAUACUUGAGGAUCACCCAAGUGUCACGGAAACACUGUGCUCCUUUGUAGAAGGCUGGAAUA [Dibeon] (Eterna round: R97, puzzle: Exclusion 3)	–	382	63	–	–	–
AGAAACAGAGGAUAUCGCGGACAGCACAUGAGGAUCACCCAUGUGAUGCUCCGCGGGCCGCGAGAAGGCUGAAAUG [Rateatge] (Eterna round: R96, puzzle: Exclusion 5)	–	–	–	11.2	–	–
AGAAACAGAGGAUAUCGCGGACAGCACAUGAGGAUCACCCAUGUGAUGCUCCGCGGGCCGCGAGAAGGCUGAAAUG [Rateatge] (puzzle: Exclusion 5)	12.2	–	–	–	29.3	14.1
AGAAACUCAAGAGGAUAUCACAUGAGGAUCACCCAUGUAUAGCGCGCUAUGCUAGUCCUCGUAUAUGAGAAGGUUUGAAAUAAG [Mat - Exclusion NG 2 - Mod of JL - D80] (Eterna round: R96, puzzle: Exclusion NG 2)	–	16.4	17.9	12.6	–	–
AGAAAUGCCCAUGGCAACAAGCUUUUUGCUUGUCUUACCACAUGAGGAUCACCCAUGUGACAUGGGCUCCUGAUAAU [Ladidier] (puzzle: Sensor v3, turn-off variant 2)	10.6	–	–	–	12.4	12.2
AGAAAUGCCCAUGGCCACAAGCUUUUUGCUUAUCUUACUACAUGAGGAUCACCCAUGUAACAUGGGCUCCUGACAAU [Enrionera] (puzzle: Sensor v3, turn-off variant 2)	11.2	–	–	–	14.9	13.3
AGAAAUGCCCAUGGCCGCAAGCUUUUUACUUGUCUUACCACAUGAGGAUCACCCAUGUGACAUGGAAACCUUAUGAU [Sensor v3, turn-off variant 2 (MOD of Oranla v.2)] (puzzle: Sensor v3, turn-off variant 2)	97	–	–	–	30.3	28.1
AGAAAUGCCCAUGGCCGCAAGCUUUUUACUUGUCUUACCACAUGAGGAUCACCCAUGUGACAUGGAUUCCUUAUGAU [Sensor v3, turn-off variant 2 (MOD of Oranla)] (puzzle: Sensor v3, turn-off variant 2)	750	–	–	–	169	248
AGAAAUGCCCAUGGCCGCAAGCUUUUUACUUGUCUUACCACAUGAGGAUCACCCAUGUGACAUGGGCUCCUGAUAAU [Mabeonen] (puzzle: Sensor v3, turn-off variant 2)	27.5	–	–	–	15	13.4
AGAAAUGCCCAUGGCCGCAAGCUUUUUACUUGUCUUACCACAUGAGGAUCACCCAUGUGACAUGGGCUCCUUAUAAU [Oranla] (puzzle: Sensor v3, turn-off variant 2)	7.4	–	–	–	15.8	13
